In assay [1] the target is T1, recombinant human IL-33 (R&D Systems 3625-IL), reduced with DTT (human, UniProt O95760 112-270, limits assumed).
T1 sequence (looked up): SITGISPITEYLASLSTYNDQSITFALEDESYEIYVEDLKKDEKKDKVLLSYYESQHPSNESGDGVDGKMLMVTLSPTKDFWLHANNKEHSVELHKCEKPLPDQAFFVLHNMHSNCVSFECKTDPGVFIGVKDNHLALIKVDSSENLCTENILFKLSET
Nature of the assay: cell-based or functional assay.

Assay [2] has as its target T2, human IL-4 (human, UniProt P05112 25-153).
T2 sequence (looked up): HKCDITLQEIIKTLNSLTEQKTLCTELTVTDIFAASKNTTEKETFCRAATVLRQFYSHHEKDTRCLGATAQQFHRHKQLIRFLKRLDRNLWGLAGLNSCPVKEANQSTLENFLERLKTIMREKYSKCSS
Nature of the assay: cell-based or functional assay.

For assay [3], the target named is T3, human TSLP (long form) (human, UniProt Q969D9 29-159, Biotinylated on the Avi tag in some assays; glycosylated (Expi293F expression)). Nature of the assay: cell-based or functional assay.
Assay [4] addresses T4, human IL-13 (human, UniProt P35225 35-146). In words: cell-based or functional assay.
Assay [5] has as its target T5, human IL-4 (human, UniProt P05112 25-153).
T5 sequence (looked up): T2 sequence (looked up)
Nature of the assay: cell-based or functional assay. This is another data set of the same source.

The target of assay [6] is human IL-13 (human, UniProt P35225 35-146). Nature of the assay: cell-based or functional assay. This is another data set of the same source.
Assay [7] deals with T3, human TSLP (long form). Nature of the assay: bridging sandwich ELISA: human TSLP coated, Tri-Fab-Fc titrated, IL-13-FLAG added, detected with HRP anti-FLAG (OD450nm).
The target in assay [8] is T4, human IL-13. In words: cell-based or functional assay. This is another data set of the same source.
Assay [9] concerns the target T4, human IL-13. Nature of the assay: SPR 37°C, antibody captured by anti-human IgG, human IL-13 1.56-50 nM.

Data on 8 molecules can be found in patent US20240117030A1 (Pfizer, published 2024).

Positions count from the first letter of the chain named.

B1: IL33-0721 (antibody, IgG1, V domains shown)
VH: EVQLVESGGGLVQPGGSLRLSCAASGFEFSHYWMYWVRQAPGKGLEWVAAITPNAGEDYYPESVKGRFTISRDNAKNSLYLQMNSLRAEDTAVYYCARGYYRYTKYSLGYWGQGTLVTVSS
VL: DIQMTQSPSSLSASVGDRVTITCRASQPIHQFLDWYQQKPGKAPKLLIYFGHILQEGVPSRFSGSGSGTDFTLTISSLQPEDFATYYCFQYKQGWSFGGGTKVEIK
For B1, the “IC50 [nM] versus reduced human IL-33 (R&D), IC50 (AVE)” value in assay [1] was 0.026 nM.

B2: IL413TSLP-1028 (trispecific antibody)
heavy: not shown
chain 1: DIQMTQSPSSLSASVGDRVTITCKASESVDHFGWSLVHWYQQKPGKAPKLLIYRASNLESGVPSRFSGSGSGTDFTLTISSLQPEDFATYYCQQSNEDPWTFGGGTKVEIKRTVAAPSVFIFPPSDEQLKSGTASVVCLLNNFYPREAKVQWKVDNALQSGNSQESVTEQDSKDSTYSLSSTLTLSKADYEKHKVYACEVTHQGLSSPVTKSFNRGECGGGGSEVTLRESGPALVKPTQTLTLTCTFSGFSLSNFGEGLSWIRQPPGKGLEWLAHIYWDDDKRYNPSLKSRLTISKDTSRNQVVLTMTNMDPVDTATYYCARRETVFYWYFDVWGQGTTVTVSSASTKGPSVFPLAPSSKSTSGGTAALGCLVKDYFPEPVTVSWNSGALTSGVHTFPAVLQSSGLYSLSSVVTVPSSSLGTQTYICNVNHKPSNTKVDKKVEPKSCEKTHTCPPCPAPEAAGAPSVFLFPPKPKDTLMISRTPEVTCVVVDVSHEDPEVKFNWYVDGVEVHNAKTKPREEQYNSTYRVVSVLTVLHQDWLNGKEYKCKVSNKALPAPIEKTISKAKGQPREPQVYTLPPSREEMTKNQVSLTCEVKGFYPSDIAVEWESNGQPENNYKTTPPVLDSDGSFFLYSKLTVDKSRWQQGNVFSCSVLHEALHSHYTQKSLSLSPGK
light 1: SYVLTQPPSVSVAPGQTARITCGGNNLGSKSVHWYQQKPGQAPVLVVYDDSDRPSWIPERFSGSNSGNTATLTISRGEAGDEADYYCQVWDSSSKHVVFGGGTKLTVLGQPKAAPSVTLFPPSSEELQANKATLVCLISDFYPGAVTVAWKADSSPVKAGVETTTPSKQSNNKYAASSYLSLTPEQWKSHRSYSCQVTHEGSTVEKTVAPTECS
light 2: DIQMTQSPSSLSASVGDRVTITCRASQSVDEEGDSYMNWYQQKPGKAPKLLIYAASNLESGVPSRFSGSGSGTDFTLTISSLQPEDFATYYCQQSNKDPPTFGGGTKVEIKRTVAAPSVFIFPPSDEQLKSGTASVVCLLNNFYPREAKVQWKVDNALQSGNSQESVTEQDSKDSTYSLSSTLTLSKADYEKHKVYACEVTHQGLSSPVTKSFNRGEC
chain 2: EVQLVESGGGLVQPGGSLRLSCAASGFTFSSYAMSWVRQAPGKGLEWVASISSGDTTYYPDSVKGRFTISRDNAKNSLYLQMNSLRAEDTAVYYCARNEGYYFGLTLWGQGTLVTVSSASTKGPSVFPLAPSSKSTSGGTAALGCLVKDYFPEPVTVSWNSGALTSGVHTFPAVLQSSGLYSLSSVVTVPSSSLGTQTYICNVNHKPSNTKVDKKVEPKSC
Consider B2, for which the “IC50, IL-4-induced CCL17 secretion by 769-P cells” value with human IL-4 [2] stood at 0.139 nM. Also, the “fold lower potency than the mAb (TSLP-0855), monocyte TARC bioassay” value in the assay with human TSLP (long form) [3] was around 2.5 fold. For the same molecule, in the assay with human IL-13 [4], the “IC50, IL-13-induced CCL17 secretion by 769-P cells” value was determined as 0.811 nM.

B3: IL413TSLP-0251 (other)
heavy: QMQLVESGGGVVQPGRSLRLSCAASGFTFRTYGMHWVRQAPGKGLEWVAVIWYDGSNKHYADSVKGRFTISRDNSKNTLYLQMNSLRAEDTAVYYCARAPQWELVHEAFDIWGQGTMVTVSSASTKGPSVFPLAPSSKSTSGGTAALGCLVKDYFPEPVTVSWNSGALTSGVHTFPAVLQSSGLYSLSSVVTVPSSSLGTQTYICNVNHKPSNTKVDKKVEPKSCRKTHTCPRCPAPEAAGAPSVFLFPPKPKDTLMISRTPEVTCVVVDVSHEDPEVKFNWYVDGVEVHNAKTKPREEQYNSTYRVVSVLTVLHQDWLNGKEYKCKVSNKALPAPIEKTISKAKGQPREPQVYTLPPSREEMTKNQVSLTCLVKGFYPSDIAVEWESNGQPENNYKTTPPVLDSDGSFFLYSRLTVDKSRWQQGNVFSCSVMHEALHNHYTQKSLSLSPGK
chain 1: EVQLVESGGGLVQPGGSLRLSCAASGFTFSSYAMSWVRQAPGKGLEWVASISSGDTTYYPDSVKGRFTISRDNAKNSLYLQMNSLRAEDTAVYYCARNEGYYFGLTLWGQGTLVTVSSRTVAAPSVFIFPPSDEQLKSGTASVVCLLNNFYPREAKVQWKVDNALQSGNSQESVTEQDSKDSTYSLSSTLTLSKADYEKHKVYACEVTHQGLSSPVTKSFNRGECGGGGSEVTLRESGPALVKPTQTLTLTCTFSGFSLSNFGEGLSWIRQPPGKGLEWLAHIYWDDDKRYNPSLKSRLTISKDTSRNQVVLTMTNMDPVDTATYYCARRETVFYWYFDVWGQGTTVTVSSASTKGPSVFPLAPSSKSTSGGTAALGCLVKDYFPEPVTVSWNSGALTSGVHTFPAVLQSSGLYSLSSVVTVPSSSLGTQTYICNVNHKPSNTKVDKKVEPKSCEKTHTCPECPAPEAAGAPSVFLFPPKPKDTLMISRTPEVTCVVVDVSHEDPEVKFNWYVDGVEVHNAKTKPREEQYNSTYRVVSVLTVLHQDWLNGKEYKCKVSNKALPAPIEKTISKAKGQPREPQVYTLPPSREEMTKNQVSLTCEVKGFYPSDIAVEWESNGQPENNYKTTPPVLDSDGSFFLYSKLTVDKSRWQQGNVFSCSVMHEALHNHYTQKSLSLSPGK
light 1: B2 light 1 with K95D
light 2: B2 light 2 with R24K, E32D, K97E
chain 2: DIQMTQSPSSLSASVGDRVTITCKASESVDHFGWSLVHWYQQKPGKAPKLLIYRASNLESGVPSRFSGSGSGTDFTLTISSLQPEDFATYYCQQSNEDPWTFGGGTKVEIKASTKGPSVFPLAPSSKSTSGGTAALGCLVKDYFPEPVTVSWNSGALTSGVHTFPAVLQSSGLYSLSSVVTVPSSSLGTQTYICNVNHKPSNTKVDKKVEPKSC
As to B3, in the assay with human IL-4 [5], the “a-hIL-4 IC50 [pM]” value stood at 6.11 pM. Besides, the “a-hIL-13 IC50 [pM]” value with human IL-13 [6] was 13.7 pM.

B4: IL413TSLP-0007 (trispecific antibody, human IgG1, kappa, lambda)
heavy: EVTLRESGPALVKPTQTLTLTCTFSGFSLSNFGEGLSWIRQPPGKGLEWLAHIYWDDDKRYNPSLKSRLTISKDTSRNQVVLTMTNMDPVDTATYYCARRETVFYWYFDVWGQGTTVTVSSASTKGPSVFPEAPSSKSTSGGTAALGCLVKDYFPEPVTVSWNSGALTSGVHTFPAVLQSSGLYSLGSVVTVPSSSLGTQTYICNVNHKPSNTKVDKKVEPKSCDKTHTCPPCPAPEAAGAPSVFLFPPKPKDTLMISRTPEVTCVVVDVSHEDPEVKFNWYVDGVEVHNAKTKPREEQYNSTYRVVSVLTVLHQDWLNGKEYKCKVSNKALPAPIEKTISKAKGQPREPQVYTLPPCREEMTKNQVSLSCAVKGFYPSDIAVEWESNGQPENNYKTTPPVLDSDGSFFLVSKLTVDKSRWQQGNVFSCSVMHEALHNHYTQKSLSLSPGK
chain 1: SYVLTQPPSVSVAPGQTARITCGGNNLGSKSVHWYQQKPGQAPVLVVYDDSDRPSWIPERFSGSNSGNTATLTISRGEAGDEADYYCQVWDSSSDHVVFGGGTKLTVLASTKGPSVFPLAPSSKSTSGGTAALGCLVKDYFPEPVTVSWNSGALTSGVHTFPAVLQSSGLYSLSSVVTVPSSSLGTQTYICNVNHKPSNTKVDKKVEPKSCGGGGSEVQLVESGGGLVQPGGSLRLSCAASGFTFSSYAMSWVRQAPGKGLEWVASISSGDTTYYPDSVKGRFTISRDNAKNSLYLQMNSLRAEDTAVYYCARNEGYYFGLTLWGQGTLVTVSSASTKGPSVFPKAPSSKSTSGGTAALGCLVKDYFPEPVTVSWNSGALTSGVHTFPAVLQSSGLYSLSSSVTVPSSSLGTQTYICNVNHKPSNTKVDKKVEPKSCDKTHTCPPCPAPEAAGAPSVFLFPPKPKDTLMISRTPEVTCVVVDVSHEDPEVKFNWYVDGVEVHNAKTKPREEQYNSTYRVVSVLTVLHQDWLNGKEYKCKVSNKALPAPIEKTISKAKGQPREPQVCTLPPSREEMTKNQVSLWCLVKGFYPSDIAVEWESNGQPENNYKTTPPVLDSDGSFFLYSKLTVDKSRWQQGNVFSCSVMHEALHNHYTQKSLSLSPGK
light 1: B2 light 2 with R24K, E32D, K97E, V137S, S180K
light 2: DIQMTQSPSSLSASVGDRVTITCKASESVDHFGWSLVHWYQQKPGKAPKLLIYRASNLESGVPSRFSGSGSGTDFTLTISSLQPEDFATYYCQQSNEDPWTFGGGTKVEIKRTVAAPSVFIFPPSDEQLKSGTASVSCLLNNFYPREAKVQWKVDNALQSGNSQESVTEQDSKDSTYSLDSTLTLSKADYEKHKVYACEVTHQGLSSPVTKSFNRGEC
chain 2: QMQLVESGGGVVQPGRSLRLSCAASGFTFRTYGMHWVRQAPGKGLEWVAVIWYDGSNKHYADSVKGRFTITRDNSKNTLNLQMNSLRAEDTAVYYCARAPQWELVHEAFDIWGQGTMVTVSSGQPKAAPSVTLFPPSSEELQANKATLVCLISDFYPGAVTVAWKADSSPVKAGVETTTPSKQSNNKYAASSYLSLTPEQWKSHRSYSCQVTHEGSTVEKTVAPTECS
With B4, the “EC50 (read off the curve)” value with human TSLP (long form) [7] was around 0.6 nM.

B5: IL413TSLP-0252 (other)
heavy: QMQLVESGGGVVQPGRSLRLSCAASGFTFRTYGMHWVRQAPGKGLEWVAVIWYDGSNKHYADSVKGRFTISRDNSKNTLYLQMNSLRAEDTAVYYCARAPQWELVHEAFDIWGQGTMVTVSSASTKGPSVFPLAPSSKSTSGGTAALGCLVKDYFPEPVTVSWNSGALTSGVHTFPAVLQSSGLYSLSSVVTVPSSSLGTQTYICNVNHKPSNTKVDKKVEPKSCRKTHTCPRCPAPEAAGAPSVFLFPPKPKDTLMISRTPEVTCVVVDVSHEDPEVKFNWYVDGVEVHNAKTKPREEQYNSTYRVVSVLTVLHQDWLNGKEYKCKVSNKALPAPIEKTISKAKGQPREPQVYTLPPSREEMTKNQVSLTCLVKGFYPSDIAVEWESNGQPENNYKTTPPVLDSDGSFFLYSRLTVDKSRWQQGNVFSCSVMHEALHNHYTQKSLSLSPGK
chain 1: B2 chain 1 with P455E, L655M, S661N
light 1: B2 light 1 with K95D
light 2: B2 light 2 with R24K, E32D, K97E
chain 2: B2 chain 2
Turning to B5, the “a-hIL-4 IC50 [pM]” value with human IL-4 [5] came out at 3.65 pM. In the assay with human IL-13 [6], the “a-hIL-13 IC50 [pM]” value was determined as 11.2 pM.

B6: IL13-0259 (antibody, IgG1, V domains shown)
VH: EVQLVESGGGLVQPGGSLRLSCAASGFTFSSYAMSWVRQAPGKGLEWVASISTGDTTYYPDSVKGRFTISRDNAKNSLYLQMNSLRAEDTAVYYCARNEGYYFGLTQWGRGTLVTVSS
VL: DIQMTQSPSSLSASVGDRVTITCRASQSVDHFGWSLVHWYQQKPGKAPKLLIYRASNLESGVPSRFSGSGSGTDFTLTISSLQPEDFATYYCQQSNEDPWTFGGGTKVEIK
notes: IgG1 effector-null/kappa IgG
As for B6, in the assay with human IL-13 [8], the “CD23: Fold versus IL13-0001” value turned out to be 0.81 fold and the “CD23 IC50 [pM] Ave. n = 2” value turned out to be 7.4 pM. In the assay with human IL-13 [9], this molecule came in with a Kd of 0.0717 nM.

B7: IL13-0271 (antibody, IgG1, V domains shown)
VH: B6 VH
VL: B6 VL with Q27E, S56D, N57S, S60T
notes: IgG1 effector-null/kappa IgG; also called IL13433-0271
In the case of B7, in the assay with human IL-13 [8], the “CD23: Fold versus IL13-0001” value is 1.01 fold and the “CD23 IC50 [pM] Ave. n = 2” value is 5.9 pM. For the same molecule, the dissociation constant (Kd) with human IL-13 [9] was 0.0736 nM.

B8: IL13-0270 (antibody, V domains shown)
VH: B6 VH with Q107L, R110Q
VL: B6 VL with Q27E, S56D, N57S, S60T
notes: IgG1 effector-null/kappa IgG; also called IL13433-0270
Turning to B8, in the assay with human IL-13 [8], the “CD23: Fold versus IL13-0001” value is 0.67 fold and the “CD23 IC50 [pM] Ave. n = 2” value is 9 pM. In the assay with human IL-13 [9], this molecule showed a Kd of 0.0932 nM.
